Residue numbers refer to the chain shown, from its start.

What all share (experiment): cell-based or functional assay
For assay [1], the target named is Env of HIV-1 strain 250-4 (HIV-1).
In assay [2] the target is Env of HIV-1 strain ZM109F.PB4 (HIV-1).
Assay [3] concerns the target Env of HIV-1 strain 3365.v2.c20 (HIV-1).
The target in assay [4] is Env of HIV-1 strain 3016.v5.c45 (HIV-1).
Assay [5] addresses Env of HIV-1 strain PVO.4 (HIV-1).
For assay [6], the target named is Env of HIV-1 strain H086.8 (HIV-1).
Assay [7] deals with Env of HIV-1 strain Du172.17 (HIV-1).
Assay [8] has as its target Env of HIV-1 strain 251-18 (HIV-1).
Assay [9] concerns the target Env of HIV-1 strain 231965.c1 (HIV-1).
In assay [10] the target is Env of HIV-1 strain 3415.v1.c1 (HIV-1).
The target of assay [11] is Env of HIV-1 strain X1254_c3 (HIV-1).
For assay [12], the target named is Env of HIV-1 strain YU2.DG (HIV-1).
In assay [13] the target is Env of HIV-1 strain REJO4541.67 (HIV-1).
Assay [14] deals with Env of HIV-1 strain R1166.c1 (HIV-1).
The target in assay [15] is Env of HIV-1 strain ZM53M.PB12 (HIV-1).
Another assay addresses Env of MuLV.

B1: γ4κ3 (antibody, V domains shown)
VH: QIHLVQSGTEVKKPGSSVTVSCKAYGVNTFGLYAVNWVRQAPGQSLEYIGQIWRWKSSASHHFRGRVIISAVDLTGSSPPISPLEIKNLTSDDTAVYFCTTTSTSDRWSGLHHDGVMAFSSWGQGTLISVSA
VL: DIQMTQSPSTLSASIGDTVRISCRASQSITGNWLAWYHQRPGKAPRLLIYRGSRLLGGVPSRFSGSAAGTDFTLTIANLQAEDFGTFYCQQYDTYPGTFGQGTKVEVKR
Regarding B1, the neutralization IC50 in assay [1], in assay [2], in [3], in assay [4], in assay [5] and in assay [6] was over 15 µg/mL throughout. Besides, the neutralization IC50 in assay [7] was over 15 µg/mL; in assay [8], over 15 µg/mL; in assay [9] it was over 15 µg/mL; in assay [10], over 15 µg/mL; in assay [11] it was 18 µg/mL; in assay [12], over 15 µg/mL. Further, the neutralization IC50 in assay [13], in assay [14] and in [15] was over 15 µg/mL each time.

B2: 8ANC3040 (antibody, V domains shown)
VH: B1 VH with I68L, P83S, S105Y, R107Q
VL: B1 VL with L34V, H38Q, S53A, R54A, A77G
For the molecule B2, the neutralization IC50 in assay [3] is over 25 µg/mL; in [4], 0.427 µg/mL; in assay [5], 0.284 µg/mL; with Env of MuLV, over 30 µg/mL; in assay [8], 0.571 µg/mL; in [9] it was 1.17 µg/mL. Besides, the neutralization IC50 in assay [10] was found to be 3.06 µg/mL; in assay [11] it was 2.91 µg/mL; in [12], 0.617 µg/mL; in [13], 0.198 µg/mL; in assay [14] it was 2.37 µg/mL; in assay [15], 14.9 µg/mL.

B3: γ20κ3 (antibody, V domains shown)
VH: B1 VH with T19A, H62D, P83S, T101A, S105P, R107Y
VL: B1 VL
With B3, the neutralization IC50 in assay [1], in assay [2], in [3], in [4], in assay [5] and in [6] was over 15 µg/mL each time. Further, the neutralization IC50 with Env of MuLV is over 21 µg/mL; in [7] it was over 15 µg/mL; in assay [8] it was over 15 µg/mL; in assay [9], over 15 µg/mL; in assay [10], over 15 µg/mL; in assay [11], 14.7 µg/mL. Besides, the neutralization IC50 in assay [12], in [13], in [14] and in assay [15] was over 15 µg/mL throughout.

B4: γ8κ3 (antibody, V domains shown)
VH: B1 VH with E10G, S45G, I68L, S82T, P83S, L89V, S105Y, R107K, H112Y
VL: B1 VL
Regarding B4, the neutralization IC50 in assay [1] was over 15 µg/mL; in [2], over 15 µg/mL; in assay [3] it was over 15 µg/mL; in assay [4], 2.38 µg/mL; in assay [5], over 15 µg/mL; in [6] it was over 15 µg/mL. In addition, the neutralization IC50 with Env of MuLV was over 18 µg/mL; in [7] it was over 15 µg/mL; in assay [8], over 15 µg/mL; in assay [9] it was 3.48 µg/mL; in [10] it was over 15 µg/mL; in assay [11], 4.01 µg/mL. Besides, the neutralization IC50 in assay [12] is 5.41 µg/mL; in assay [13], over 15 µg/mL; in [14] it was 7.6 µg/mL; in [15], over 15 µg/mL.

B5: γ46κ5 (antibody, V domains shown)
VH: B1 VH with S45G, I68L, P83S, L89V, S105Y, R107K, M117V
VL: B1 VL with I15T, L34V, H38Q, S53A, R54A, S64R, A77G
As to B5, the neutralization IC50 in [1] is over 15 µg/mL; in assay [2] it was over 15 µg/mL; in assay [3], over 15 µg/mL; in assay [4], 0.111 µg/mL; in assay [5], 0.129 µg/mL; in assay [6] it was 1.75 µg/mL. In addition, the neutralization IC50 was over 15 µg/mL in [7]; 0.609 µg/mL in assay [8]; 0.525 µg/mL in assay [9]; over 15 µg/mL in assay [10]; 1.79 µg/mL in assay [11]; 0.553 µg/mL in [12]. Further, the neutralization IC50 in [13] stood at 0.196 µg/mL; in [14] it was 0.922 µg/mL; in assay [15] it was 12.4 µg/mL.

B6: γ8κ11 (antibody, V domains shown)
VH: B1 VH with E10G, S45G, I68L, S82T, P83S, L89V, S105Y, R107K, H112Y
VL: B1 VL with I15V, D17G, N32G
As to B6, the neutralization IC50 in assay [1] was over 15 µg/mL; in assay [2] it was over 15 µg/mL; in assay [3] it was over 15 µg/mL; in assay [4], 2.46 µg/mL; in assay [5] it was 8.16 µg/mL; in assay [6], over 15 µg/mL. Also, the neutralization IC50 in assay [7] is over 15 µg/mL; in assay [8], over 15 µg/mL; in [9] it was 2.49 µg/mL; in assay [10], over 15 µg/mL; in assay [11], 4.14 µg/mL; in assay [12], 9.35 µg/mL. Further, the neutralization IC50 in [13] is over 15 µg/mL; in [14], 3.88 µg/mL; in [15] it was over 15 µg/mL.

B7: γ15κ3 (antibody, V domains shown)
VH: B1 VH with P83S, T102A, S105Y, R107K
VL: B1 VL
On to B7, for which the neutralization IC50 in [1] is over 15 µg/mL; in [2] it was over 15 µg/mL; in assay [3], over 15 µg/mL; in assay [4] it was 1.26 µg/mL; in assay [5], 5.32 µg/mL; in [6], over 15 µg/mL. For the same molecule, the neutralization IC50 in the assay with Env of MuLV was over 30 µg/mL; in assay [7], over 15 µg/mL; in [8], over 15 µg/mL; in [9], 1.61 µg/mL; in assay [10], over 15 µg/mL; in assay [11], 3.49 µg/mL. In addition, the neutralization IC50 in assay [12] is 1.07 µg/mL; in assay [13], over 15 µg/mL; in assay [14], 3.94 µg/mL; in [15], over 15 µg/mL.

B8: γ15κ18 (antibody, V domains shown)
VH: B1 VH with P83S, T102A, S105Y, R107K
VL: B1 VL with I15V, N32G, T70A
Take B8: the neutralization IC50 in assay [1] was over 15 µg/mL; in assay [2] it was over 15 µg/mL; in assay [3] it was over 15 µg/mL; in assay [4] it was 0.664 µg/mL; in assay [5], 1.59 µg/mL; in assay [6] it was over 15 µg/mL. In addition, the neutralization IC50 was over 15 µg/mL in assay [7]; over 15 µg/mL in assay [8]; 1.49 µg/mL in assay [9]; over 15 µg/mL in [10]; 2.85 µg/mL in assay [11]; 1.17 µg/mL in assay [12]. For the same molecule, the values for the neutralization IC50 in assay [13], in [14] and in assay [15] were over 15 µg/mL, 1.99 µg/mL and over 15 µg/mL, respectively.

B9: γ22κ3 (antibody, V domains shown)
VH: B1 VH with I68L, S77P, P83S, S105Y, R107K
VL: B1 VL
Take B9: the neutralization IC50 in [1], in assay [2], in [3], in [4], in [5] and in assay [6] was over 15 µg/mL throughout. Further, the neutralization IC50 in assay [7], in assay [8], in [9], in [10], in [11] and in assay [12] was over 15 µg/mL in each case. Moreover, the neutralization IC50 in assay [13], in [14] and in assay [15] was over 15 µg/mL in each case.

B10: γ52κ3 (antibody, V domains shown)
VH: B1 VH with I68L, P83S, S105Y
VL: B1 VL
For B10, the neutralization IC50 was over 15 µg/mL in assay [1]; over 15 µg/mL in [2]; over 15 µg/mL in [3]; 3.05 µg/mL in assay [4]; 1.92 µg/mL in [5]; over 15 µg/mL in [6]. In addition, the neutralization IC50 is over 30 µg/mL with Env of MuLV; over 15 µg/mL in [7]; 14.5 µg/mL in assay [8]; 6.59 µg/mL in [9]; over 15 µg/mL in assay [10]; over 15 µg/mL in assay [11]. In addition, the neutralization IC50 in assay [12] is 5.75 µg/mL; in assay [13] it was over 15 µg/mL; in assay [14], 23.4 µg/mL; in assay [15], over 15 µg/mL.

Values taken from patent US20180171001A1.
